Laboratory results published in IntAct's records for PubMed 19351902.

B1: Short transient receptor potential channel 3 (Mus musculus), Q9QZC1 (parent)
chain: MSTKVKKCREPARVTLPAPEEEEDGEAEGGESQRRRRGWRGVNGGLEPPCPRAPPSPGPDASSEGSPSRWRTAGMRDKGRRQAVRGPAFMFGARGPSLTAEEERFLDAAEYGNIPVVRKMLEESRTLNVNCVDYMGQNALQLAVGNEHLEVTELLLKKENLARIGDALLLAISKGYVRIVEAILGHPGFAASRRLTLSPCEQELRDDDFYAYDEDGTRFSPDITPIILAAHCHKYEVVHLLLLKGARIERPHDYFCRCSDCAEKQRLDAFSHSRSRINAYKGLASPAYLSLSSEDPVLTALELSNELAKLANIEKEFKNDYRKLSMQCKDFVVGVLDLCRDSEEVEAILNGDLESAEPLERHGHKASLSRVKLAIKYEVKKFVAHPNCQQQLLTIWYENLSGLREQTIAIKCLVVLVVALGLPFLAIGYWIAPCSRLGKILRSPFMKFVAHAASFIIFLGLLVFNASDRFEGITTLPNITVIDYPKQIFRVKTTQFTWTEMLIMVWVLGMMWSECKELWLEGPREYIVQLWNVLDFGMLSIFIAAFTARFLAFLQATKAQQYVDSHVQESDLSEVTLPPEVQYFTYARDKWLPSDPQIISEGLYAIAVVLSFSRIAYILPANESFGPLQISLGRTVKDIFKFMVLFIMVFLAFMIGMFILYSYYLGAKVNPAFTTVEESFKTLFWSIFGLSEVTSVVLKYDHKFIENIGYVLYGIYNVTMVVVLLNMLIAMINSSYQEIEDDSDVEWKFARSKLWLSYFDDGKTLPPPFSLVPSPKSFVYFIMRITNFSKCRRRRLQKDLELGMGNSKSRLNLFTQSNSRVFESHSFNSILNQPTRYQQIMKRLIKRYVLKAQVDKENDEVNEGELKEIKQDISSLRYELLEDKSQATEELAILIHKLSEKLNPSVLRCE

Variants of: B1
Settings: with kpcg_human PRKCG

Variant	effect of a mutation on the interaction
T635A	disrupting interaction strength
